Results on three substances are retold here after paper PMC3310397.

The target of test [1] is G-CSF receptor on NFS-60 cells (mouse (endogenous in NFS-60)) (UniProt P40223). Kind of test: radioligand binding.
Test [2] has as its target Tf receptor on Caco-2 cells (human (endogenous in Caco-2)) (UniProt P02786). The test is described as follows: radioligand binding.
UniProt P02786, sequence (P02786 whole entry): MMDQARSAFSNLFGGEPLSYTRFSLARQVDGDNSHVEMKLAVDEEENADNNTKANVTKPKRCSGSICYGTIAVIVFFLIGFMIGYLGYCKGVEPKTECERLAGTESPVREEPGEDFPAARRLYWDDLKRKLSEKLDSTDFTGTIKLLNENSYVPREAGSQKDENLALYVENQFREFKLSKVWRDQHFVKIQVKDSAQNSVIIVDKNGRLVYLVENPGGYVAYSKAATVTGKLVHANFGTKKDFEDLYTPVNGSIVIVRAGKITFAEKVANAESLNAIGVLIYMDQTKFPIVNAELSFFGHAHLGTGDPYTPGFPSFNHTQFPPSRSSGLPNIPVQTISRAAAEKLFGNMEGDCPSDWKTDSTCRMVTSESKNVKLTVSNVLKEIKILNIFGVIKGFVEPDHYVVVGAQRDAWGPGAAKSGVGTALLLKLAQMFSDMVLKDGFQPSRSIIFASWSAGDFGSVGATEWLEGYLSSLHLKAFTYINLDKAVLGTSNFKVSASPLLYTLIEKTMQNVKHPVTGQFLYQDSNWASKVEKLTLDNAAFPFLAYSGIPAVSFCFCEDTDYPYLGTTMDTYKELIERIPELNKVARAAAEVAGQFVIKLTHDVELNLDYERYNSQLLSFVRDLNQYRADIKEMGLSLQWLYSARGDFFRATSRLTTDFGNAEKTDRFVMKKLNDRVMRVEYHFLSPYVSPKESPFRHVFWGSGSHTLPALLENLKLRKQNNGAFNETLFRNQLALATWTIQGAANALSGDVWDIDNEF

UniProt P40223, sequence (P40223 26-837): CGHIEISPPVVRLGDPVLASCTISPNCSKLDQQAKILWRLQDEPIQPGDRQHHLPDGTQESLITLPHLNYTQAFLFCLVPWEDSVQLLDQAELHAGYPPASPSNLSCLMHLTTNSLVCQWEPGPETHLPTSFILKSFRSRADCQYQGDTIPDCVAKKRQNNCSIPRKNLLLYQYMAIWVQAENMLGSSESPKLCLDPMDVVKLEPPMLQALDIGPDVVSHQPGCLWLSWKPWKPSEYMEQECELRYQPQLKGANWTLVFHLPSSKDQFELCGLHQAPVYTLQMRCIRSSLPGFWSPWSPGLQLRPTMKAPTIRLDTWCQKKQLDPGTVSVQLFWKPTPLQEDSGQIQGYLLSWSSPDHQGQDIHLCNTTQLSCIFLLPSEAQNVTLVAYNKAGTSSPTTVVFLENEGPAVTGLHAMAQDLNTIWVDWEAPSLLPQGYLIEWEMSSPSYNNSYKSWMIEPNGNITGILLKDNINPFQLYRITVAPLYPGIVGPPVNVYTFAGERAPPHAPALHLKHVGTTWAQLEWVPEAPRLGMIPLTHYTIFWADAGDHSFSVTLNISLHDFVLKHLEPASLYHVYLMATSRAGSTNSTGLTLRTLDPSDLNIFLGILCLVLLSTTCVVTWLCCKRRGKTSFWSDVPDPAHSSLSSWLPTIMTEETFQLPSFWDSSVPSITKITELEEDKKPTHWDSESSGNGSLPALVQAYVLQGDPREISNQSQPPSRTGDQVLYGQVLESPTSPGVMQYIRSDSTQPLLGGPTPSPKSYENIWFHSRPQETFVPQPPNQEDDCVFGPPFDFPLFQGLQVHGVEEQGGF

By IC50 is commonly meant the point on the concentration scale where inhibition reaches its midpoint. Lower therefore signals higher potency. In turn, “recombinant human G-CSF, aglycosylated (Neupogen) (from UniProt P09919-2 31-204) (ligand)” yielded an IC50 in test [1] of 0.113 µM.
Turning to “G-CSF-LE-Tf fusion protein (dipeptide linker)”, the IC50 was determined as 0.038 µM in test [1] and 0.0075 µM in test [2].
As for “GH-LE-Tf fusion protein (dipeptide linker)”, in test [2], the IC50 amounted to 0.0212 µM. This counts as double-digit nanomolar.
